Experimental data reported in patent US20200330603A1, “PEPTIDES FOR RENAL THERAPY” (FRED HUTCHINSON CANCER RESEARCH CENTER, priority 2015, published 2020).
Where “and” joins values, the source holds several entries; their conditions need not be identical. Equal entries are not always repeated. Ends that are not written are not given here.

Columns and labels:
[1] = Plasma BUN, assessment of renal injury (Example 14); type: in vivo, mice
Method: (§1) This example illustrates assessment of renal injury by peptides of this disclosure. Mice were injected intravenously at a dose of 100 nmol, which is approximately 16 mg/kg. PBS was administered as a negative control. At 24 hours post-peptide administration, mice were euthanized and plasma blood urea nitrogen (BUN) and plasma creatinine were measured. The blood urea nitrogen (BUN) assay was performed to assess renal toxicity with a commercially available kit. Plasma creatinine concentrations were determined using the colorimetrically corrected Jaffe reaction method. Additionally, the kidneys from these mice were removed, sectioned, and stained using periodic acid Schiff (PAS). […] Histological analysis corroborated the mRNA/protein data.

[2] = Peptide stability to a reducing agent (DTT), RP-HPLC; type: physicochemical; settings: 10 mM DTT in PBS, room temperature, 30 minutes
Method: (§2) This example describes peptide stability in the presence of pepsin, trypsin, a reducing agent, or elevated temperature. Peptides were first suspended in 500 µl of ddH2O to a stock concentration of 2 mg/ml. […] These reactions were then quenched with 5 μg of soybean trypsin inhibitor (I) and, in some cases, 10 mM dithiothreitol (DTT). […] Temperature stability was tested by incubating peptides in non-reducing conditions at 70° C. for 1 hour. Stability was evaluated by RP-HPLC.

[3] = Plasma creatinine, Jaffe reaction method (Example 14); type: in vivo, mice; settings: 100 nmol iv
Method: as §1

[4] = Blood urea nitrogen (BUN) assay in plasma, renal biocompatibility (Example 4); type: in vivo, mice; settings: 100 nmol per mouse intravenously, after 24 hours, one value per mouse
Method: This example describes renal biocompatibility of peptides of this disclosure. The peptides of SEQ ID NO: 18, SEQ ID NO: 20, SEQ ID NO: 21, SEQ ID NO: 26, SEQ ID NO: 36, SEQ ID NO: 39, SEQ ID NO: 45 and SEQ ID NO: 53 were intravenously dosed into mice at 100 nmol per mouse. After 24 hours, mice were anesthesized with Ketamine-Xylazine and euthanized. Plasma and kidneys were removed as quickly as possible after euthanization. A blood urea nitrogen (BUN) assay was performed to assess renal toxicity with a commercially available kit.
The average BUN concentration in plasma for naïve mice was 25 mg/dL, with a standard error of 2 mg/dL. The average BUN concentration in plasma for peptide-dosed mice was 21, with a standard error of 1 mg/dL.

[5] = Kidney histology, periodic acid Schiff (PAS) stain; type: in vivo, mice; settings: 24 hours after intravenous administration of 100 nmol
Method: as §1

trypsin = assay: Peptide stability in the presence of trypsin, RP-HPLC; type: in vitro ADME; settings: 5 μg trypsin, pH 7.0, 30 minutes at 37.5° C.
Method: as §2

[6] = Competitive renal uptake studies, fluorescence imaging of whole organs; type: in vivo, mice; settings: 2 nmol SEQ ID NO: 4-AF647 co-injected with 100 or 2000 nmol competitor, 1 hour
Method: This example describes competitive uptake studies of peptides of this disclosure in kidneys. Peptides of this disclosure were compared to known kidney homers (“competitors”) to assess the efficiency and strength of kidney targeting. Three competitors were tested against a peptide of SEQ ID NO: 4, and kidney uptake was quantified by fluorescence imaging of whole organs on a Spectrum IVIS imager.
Kidneys from uninjected mice were used as a negative control. Fluorescence signal in each group was quantified to determine the average radiant efficiency in the kidneys from three mice per cohort. Data are shown as mean and error bars indicate standard deviation. A p-value of 0.0081 was calculated by a T-test, and the error bars indicate standard deviation. In this experiment, the unlabeled SEQ ID NO: 4 peptide competed with the SEQ ID NO: 4-AF647 as shown by decreased fluorescence and thus, decreased accumulation of the dye labeled peptide in the kidney. […] Fluorescence signal in each group was quantified to determine the average radiant efficiency in the kidneys from three mice per cohort. Data are shown as mean and error bars indicate standard deviation. Kidney uptake of a peptide of SEQ ID NO: 4-AF647 was not dampened by SEQ ID NO: 121 peptide even at the highest ratio of competitor. […] Fluorescence signal in each group was quantified to determine the average radiant efficiency in the kidneys from three mice per cohort. Data are shown as mean and error bars indicate standard deviation. A p-value of 0.015 was calculated by a Student's unpaired t-test.

MCP-1 mRNA = assay: Stress-induced mRNA by RT-PCR, MCP-1; type: in vivo, mice; settings: four hours post-peptide administration
Method: (§3) At four hours post-peptide administration, potential renal injury was assessed by measuring three stress-induced mRNAs (MCP-1, NGAL, and TNFa).

NGAL mRNA = assay: Stress-induced mRNA by RT-PCR, NGAL; type: in vivo, mice; settings: four hours post-peptide administration
Method: as §3

HO-1 mRNA = assay: mRNA by RT-PCR, HO-1; type: in vivo, mice; settings: four hours post-peptide administration
TNFa mRNA = assay: Stress-induced mRNA by RT-PCR, TNFa; type: in vivo, mice; settings: four hours post-peptide administration
Method: as §3

[7] = Whole body autoradiography of 14C labeled peptides, renal cortex and blood; type: in vivo, mice; settings: for Signal ratio Kidney:Blood (3 hours) / Signal ratio Kidney:Blood (24 hours): renal cortex vs blood from the ventricle, 100 nmol iv; for Pixel density-Bkg/area (3 hours) / Pixel density-Bkg/area (24 hours): renal cortex, 100 nmol 14C labeled peptide iv
Excerpt: This example describes radiolabeling of peptides of this disclosure. Several knotted peptides were radiolabeled by reductive methylation with ^14C formaldehyde and sodium cyanoborohydride with standard techniques. The sequences were engineered to have the amino acids, “G” and “S” at the N terminus. See Methods in Enzymology V91:1983 p. 570 and JBC 254(11):1979 p. 4359. An excess of formaldehyde was used to ensure complete methylation (dimethylation of every free amine). The labeled peptides were isolated via solid-phase extraction on Strata-X columns (Phenomenex 8B-S100-AAK), rinsed with water with 5% methanol, and recovered in methanol with 2% formic acid. Solvent was subsequently removed in a blowdown evaporator with gentle heat and a stream of nitrogen gas. The final product was verified and characterized by high performance liquid chromatography (HPLC).
This example illustrates accumulation of peptides of the present disclosure in kidneys measured by whole body autoradiography. Peptides of the present disclosure were radiolabeled as described in EXAMPLE 2. 100 nmol of ^14C labeled peptides were administered intravenously in mice. Radiolabeled peptide signal was quantified in the renal cortex and blood from the ventricle in 2-3 sections per mouse in 2 mice total. Whole body autoradiography analysis was performed with AIDA.
SEQ ID NO: 55 and SEQ ID NO: 119 ([…]), a linearized version of SEQ ID NO: 55, were radiolabeled with ^14C as described in EXAMPLE 2 and administered intravenously in mice at a dose of 100 nmol. Radiolabeled peptide signal was quantified in the renal cortex and blood from the ventricle in 2-3 sections per mouse in 2 mice total. Whole body autoradiography analysis was performed with AIDA.

pepsin = assay: Peptide stability in the presence of pepsin, RP-HPLC; type: in vitro ADME; settings: 20 μg pepsin, pH 1.05, 30 minutes at 37.5° C.
Method: as §2

[8] = Temperature stability at 70° C., RP-HPLC; type: physicochemical; settings: non-reducing conditions, 70° C. for 1 hour
Method: as §2

[9] = Table 3, 100 nmol iv (approximately 16 mg/kg), 24 hours post-peptide administration
[10] = Table 3, 24 hours post-peptide administration
[11] = Table 4, 100 nmol iv, time not stated for this column (mRNAs at four hours)
[12] = Table 4, time not stated for this column (mRNAs at four hours)

Row | Sequence | Plasma BUN [1, 9] | Reduction [2] | Plasma Creatinine [3, 10] | Peptide BUN [4] | renal physiology (PAS histology, FIG. 24) [5] | Trypsin (trypsin) | competition with kidney uptake of SEQ ID NO: 4-AF647 (FIG. 11) [6] | Plasma BUN [1, 11] | mMCP-1/GAPDH (MCP-1 mRNA) | mNGAL/GAPDH (NGAL mRNA) | mHO-1/GAPDH (HO-1 mRNA) | Plasma Creatinine [3, 12] | mTNFa/GAPDH (TNFa mRNA) | Signal ratio Kidney:Blood (3 hours) [7] | Signal ratio Kidney:Blood (24 hours) [7] | Pixel density-Bkg/area (3 hours) [7] | Pixel density-Bkg/area (24 hours) [7] | Pepsin (pepsin) | Temperature (70° C.) [8]
1 | GSGDCLPHLKRCKENNDCCSKKCKRRGANPEKRCR [SEQ ID NO: 18] | 19.5 mg/dL | Partially Resistant | 0.43 mg/dL | 21 mg/dL and 18 mg/dL | normal renal physiology | Partially Resistant |  |  |  |  |  |  |  |  |  |  |  |  | 
2 | GSQKILSNRCNNSSECIPHCIRIFGTRAAKCINRKCYCYP [SEQ ID NO: 20] | 25 mg/dL | Resistant | 0.5 mg/dL | 29 mg/dL and 21 mg/dL | normal renal physiology | Partially Resistant |  |  |  |  |  |  |  |  |  |  |  |  | 
3 | KKEEEKKEEEKKEEEKK [SEQ ID NO: 121, reference compound] |  |  |  |  |  |  | failed to compete |  |  |  |  |  |  |  |  |  |  |  | 
4 | GSSFGLCRLRRGFCARGRCRFPSIPIGRCSRFVQCCRRVW [SEQ ID NO: 45] | 21.5 mg/dL |  | 0.39 mg/dL | 21 mg/dL and 22 mg/dL | normal renal physiology |  |  |  |  |  |  |  |  |  |  |  |  |  | 
5 | GSSCEPGTTFRDRCNTCRCGSDGRSAACTLRACPQ [SEQ ID NO: 46] |  |  |  |  |  |  |  | 22 mg/dL | 0.64 | 1.39 | 0.58 | 0.29 mg/dL | 2.87 | 4.7 | 6 | 8.83E+05 | 1.49E+06 |  | 
6 | GSDRDSCIDKSRCSKYGYYQECQDCCKKAGHNGGTCMFFKCKCA [SEQ ID NO: 21] | 20 mg/dL | Not Resistant | 0.33 mg/dL | 23 mg/dL and 17 mg/dL | normal renal physiology | Partially Resistant |  |  |  |  |  |  |  |  |  |  |  |  | 
7 | GSVFINVKCRGSPECLPKCKEAIGKSAGKCMNGKCKCYP [SEQ ID NO: 36] | 21.5 mg/dL | Not Resistant | 0.4 mg/dL | 22 mg/dL and 21 mg/dL | normal renal physiology | Not Resistant |  |  |  |  |  |  |  |  |  |  |  | Resistant | Resistant
8 | GSQFTDVKCTGSKQCWPVCKQMFGKPNGKCMNGKCRCYS [SEQ ID NO: 26] | 19 mg/dL | Not Resistant | 0.33 mg/dL | 19 mg/dL | normal renal physiology | Partially Resistant |  |  |  |  |  |  |  |  |  |  |  |  | 
9 | GSSCARPRENCNRMNILCCRGECVCPTFGDCFCYGD [SEQ ID NO: 54] |  |  |  |  |  |  |  | 26 mg/dL | 0.74 | 1.58 | 0.65 | 0.26 mg/dL | 2.42 | 0.8 | 7.2 | 1.48E+06 | 1.95E+06 |  | 
10 | GGYSRCQLQGFNCVVRSYGLPTIPCCRGLTCRSYFPGSTYGRCQRY [SEQ ID NO: 53] | 20.5 mg/dL |  | 0.35 mg/dL | 19 mg/dL and 22 mg/dL | normal renal physiology |  |  |  |  |  |  |  |  |  |  |  |  |  | 
11 | GSQDKCKKVYENYPVSKCQLANQCNYDCKLDKHARSGECFYDEKRNLQCICDYCEY [SEQ ID NO: 39] | 20.5 mg/dL | Not Resistant | 0.32 mg/dL | 23 mg/dL and 18 mg/dL | normal renal physiology | Partially Resistant |  |  |  |  |  |  |  |  |  |  |  |  | 
12 | GSQFTNVSCTTSRECWSVCQRLHNTSRGRCMNRRCRCYS [SEQ ID NO: 5] |  | Resistant |  |  |  | Resistant |  | 23 mg/dL | 0.79 | 1.76 | 0.62 | 0.23 mg/dL | 2.55 | 27.2 | 6.4 | 1.40E+07 | 1.81E+06 | Resistant | 
